# In paper PMC5471280, “An alternative conformation of ERβ bound to estradiol reveals H12 in a stable antagonist position” (Scientific Reports, 2017):
# Biological target: the molecule itself
# Experiment: crystal structure; ERβ LBD-E2 complex at 5 mg/mL; sitting drop, 19 °C; 0.1 M Na-citrate pH 5.5, 10% PEG-4000, 10% isopropanol; no coactivator peptide; 2.5 Å; dimer in the asymmetric unit
protein,measurement,value
"human estrogen receptor beta ligand-binding domain (residues 256-501) bound to 17β-estradiol (domain or fragment, UniProt Q92731 256-501, looked up, The tag was removed with the SUMO protease Ulp1; also called ERβ LBD; hERβ LBD; source: E. coli BL21 (DE3)RIL, purified (NiNTA, Ulp1 cleavage, Superdex-75 SEC)) RELLLDALSPEQLVLTLLEAEPPHVLISRPSAPFTEASMMMSLTKLADKELVHMISWAKKIPGFVELSLFDQVRLLESCWMEVLMMGLMWRSIDHPGKLIFAPDLVLDRDEGKCVEGILEIFDMLLATTSRFRELKLQHKEYLCVKAMILLNSSMYPLVTATQDADSSRKLAHLLNAVTDALVWVIAKSGISSQQQSMRLANLLMLLSHVRHASNKGMEHLLNMKCKNVVPVYDLLLEMLNAHVLR",stoichiometry N,2
